The text below walks through data of the supplement of paper PMC11865577.

What all share (experiment): pull-down binding Z-score (relative to library population); higher = stronger binding
What all share (settings): RNA library: Library-2

Data set [1] deals with TO-N3 (biotin conjugate). An outline of the steps: (§1)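 The RNA library, end-labelled with Cy5 or Cy3, was heat-folded in phosphate/NaCl/KCl buffer, and 1 μg was incubated at 25 °C for 60 min with streptavidin beads carrying 100 pmol of biotin-conjugated small molecule. Hot SDS released the bound RNA, which was then hybridised to a DNA barcode microarray for 20 h at 55.5 °C. For scoring binding, signal from beads alone was subtracted, replicate barcoded probes were averaged after discarding the highest and lowest, and each value was turned into a Z-score from the library mean and standard deviation.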

Data set [2] concerns TO-3-N3 (biotin conjugate). An outline of the steps: as §1
Data set [3] has as its system TO-N3-2 (biotin conjugate). The procedure, abridged: as §1
The test system of data set [4] is TO-3-N3-2 (biotin conjugate). The procedure, abridged: as §1

As for “CACUGUACAGUCUAAAAUGUCAGAUGUAAAGUG [DMSMaPseq_invitro_SARS-CoV-2_Motif_208]”, the “pull-down binding Z-score” value in data set [1] was -0.414; in data set [2], -0.25; in data set [3], -0.645; in data set [4], -0.0983.
As to “UACCAGACUAUAACACAUAUAAAAAUACGUGUGAUGGUA [DMSMaPseq_invitro_SARS-CoV-2_Motif_221]”, the “pull-down binding Z-score” value in data set [1] is -1.03; in data set [2], -0.929; in data set [3], -1.24; in data set [4] it was -0.385.
Turning to “CUCCUUUGAUGGUUGCAUACAUGUUGGAG [IAV_invivo_PB2_1_Motif_8+IAV_invivo_PB2_1_Motif_8]”, the “pull-down binding Z-score” value in data set [1] is -0.689; in data set [2] it was -0.359; in data set [3] it was -0.427; in data set [4] it was -0.208.
For “ACAUCUCUGGCAUUAAUGCUUCAGUUGU [SHAPE_invivo_SARS-CoV-2_Motif_471]”, the “pull-down binding Z-score” value in data set [1] was -1.33; in data set [2] it was -1.08; in data set [3], -1.06; in data set [4], -0.583.
For the sequence “CCCGGAAAUAGCAGGAAGACCCAAAGUAAGAGAUCAAGCUGGG [IAV_invivo_HA_4_Motif_10+IAV_invivo_HA_4_Motif_10]”, the “pull-down binding Z-score” value was -0.157 in data set [1], -0.309 in data set [2], 0.433 in data set [3] and 0.505 in data set [4].
As for GGGGUGAAGAGGAUACUUACCUG [U1snRNP5ss-12], the “pull-down binding Z-score” value came to 0.427 in data set [1], 0.145 in data set [2], 0.523 in data set [3] and 0.365 in data set [4].
Turning to “CCCCACUACAAUUGGGG [IAV_invivo_HA_4_Motif_4+IAV_invivo_HA_4_Motif_4]”, the “pull-down binding Z-score” value in data set [1] was -0.0989; in data set [2], 0.245; in data set [3] it was -1.27; in data set [4], -0.517.
As to “GGAGGAGGAGGAGGAGGAGGAGGAGGAGGAGGAGGAGGAGGAGGAGGA [G4_r(GGA)16]”, the “pull-down binding Z-score” value was determined as 5.89 in data set [1], 7.15 in data set [2], 3.35 in data set [3] and 8.95 in data set [4].
Take “CCUAUCAAUGG [IAV_invivo_PB2_1_Motif_26+IAV_invivo_PB2_1_Motif_26]”: the “pull-down binding Z-score” value in data set [1] is 0.11; in data set [2], 0.191; in data set [3] it was -0.376; in data set [4] it was -0.212.
In the case of “CCAGUAUCUGAAUUACUUACACCACUGG [SHAPE_invivo_SARS-CoV-2_Motif_58]”, the “pull-down binding Z-score” value in data set [1] is 0.688; in data set [2], 0.91; in data set [3], -0.0924; in data set [4] it was 0.119.
Regarding “GAGUUUUUAGUGCAGUUGGUAACAUCUGUUACACACCAUCAAAACUU”, the “pull-down binding Z-score” value in data set [1] is 0.0323; in data set [2] it was -0.305; in data set [3], 0.396; in data set [4], -0.12.
Regarding “UUAAACACGCUUGUUAAACAACUUAGCUCCAAUUUUGGUGCAAUUUCAAGUGUUUUAA [SHAPE_invivo_SARS-CoV-2_Motif_457]”, the “pull-down binding Z-score” value was 0.301 in data set [1], 0.47 in data set [2], -0.627 in data set [3] and -0.0371 in data set [4].
The corresponding values for GCGCUGCCAGAAACUGGCGGAGCGC [bulge-GG] are -0.873, -0.714, -0.22 and -0.672.
Turning to “GGCAACUAGCACUCUCCAAGGGUGUUCACUUUGUUUGCAACUUGCUGUUGUUGUUUGUAACAGUUUACUCACACCUUUUGCUCGUUGCU [SHAPE_invitro_SARS-CoV-2_Motif_465]”, the “pull-down binding Z-score” value is -0.358 in data set [1], -0.318 in data set [2], -0.0997 in data set [3] and -0.205 in data set [4].
For the sequence “UCUGAAGAAGUAGUGGAAAAUCCUACCAUACAGA [DMSMaPseq_invitro_SARS-CoV-2_Motif_122]”, the “pull-down binding Z-score” value is 0.657 in data set [1], -0.124 in data set [2], 0.514 in data set [3] and -0.226 in data set [4].
For “CAGGACACGAGUAACUCGUCUAUCUUCUG [SARS-CoV-2-Conserved-Structured-36_Interval-120-237_Motif_2]”, the “pull-down binding Z-score” value in data set [1] was 0.324; in data set [2] it was 0.225; in data set [3], 0.379; in data set [4] it was -0.0048.
“GGAGAGUGUGGACACUUAUGAAUGUCUUGACACUCGUU [SHAPE_invitro_SARS-CoV-2_Motif_211]”: the “pull-down binding Z-score” value in data set [1] stood at 0.586; in data set [2] it was 0.331; in data set [3], 0.364; in data set [4] it was 0.121.
As for UGGCCAUGGUACAUUUGGCUA, the “pull-down binding Z-score” value in data set [1] was 0.286; in data set [2] it was 0.537; in data set [3], -0.59; in data set [4], -0.0742.
Take “GCAACUUGCUGUUGUUGUUUGUAACAGUUUACUCACACCUUUUGCUCGUUGC”: the “pull-down binding Z-score” value in data set [1] is -1.09; in data set [2], -0.974; in data set [3], -0.851; in data set [4] it was -0.429.
Take GGUUGGGAAAUUGUUAAAUUUAUCUCAACC: the “pull-down binding Z-score” value in data set [1] was -0.616; in data set [2], -0.472; in data set [3] it was -0.802; in data set [4], -0.155.
Regarding “UAAAGUACUUAAUGAGAAGUGCUCUGCCUAUACAGUUGAACUCGGUACAGAAGUAAAUGAGUUCGCCUGUGUUGUGGCAGAUGCUGUCAUAAAAACUUUG [DMSMaPseq_invitro_SARS-CoV-2_Motif_52]”, the “pull-down binding Z-score” value in data set [1] was -0.501; in data set [2] it was -0.419; in data set [3], 0.722; in data set [4], 0.122.
ACAAGAUGAUAAGAAAAUCAAAGCUUGU: the “pull-down binding Z-score” value in data set [1] was -1.1; in data set [2], -0.879; in data set [3], -0.969; in data set [4], -0.459.
The matching figures for “UCCUAUUACGGA [SHAPE_invivo_SARS-CoV-2_Motif_121]”: -0.905, -0.479, -1.27 and -0.643.
The corresponding values for “GGAAAUGAUUCC [IAV_invivo_PB2_1_Motif_4+IAV_invivo_PB2_1_Motif_4]” are -1.05, -0.59, -1.3 and -0.712.
Consider UCCUCAGUUUUACAUUCAACUCAGGA, for which the “pull-down binding Z-score” value was -0.757 in data set [1], -0.555 in data set [2], -0.699 in data set [3] and -0.225 in data set [4].
Take “AAAGGACUGGUAUGAUUUUGUAGAAAACCCAGAUAUAUUACGCGUAUACGCCAACUUAGGUGAACGUGUACGCCAAGCUUU”: the “pull-down binding Z-score” value is -0.193 in data set [1], -0.541 in data set [2], 0.0415 in data set [3] and -0.0434 in data set [4].
As to “CAGGCCAUCACAAAUGCCACAGCUUGAGUAAACUGUGCAGCCUG [3-way model-2_DENV2]”, the “pull-down binding Z-score” value in data set [1] was -0.464; in data set [2] it was -0.433; in data set [3], -0.0801; in data set [4], -0.224.
